Experimental findings from PMC7710607 are described below.

This assay deals with ACSL1 (UniProt P41216). As to the kind of experiment: co-IP of tagged proteins, blot. Particulars: reference: wild type TBK1; sites S172.

On to “TBK1 (flag-human TBK1) (from UniProt Q9UHD2) S172A”, for which the “binding against the reference” value is reported as “stronger”.
